The subject of series [1] is MS2 coat protein. The series can be described thus: apparent KD of MS2 coat protein, switch ON state; designed switch direction (-1 OFF switch, 1 ON switch): -1; higher = weaker reporter binding. As to conditions: FMN input: 0 or 200 uM; Eterna round: R93 (includes R88 designs). The essentials: (§1)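 With or without constant ligand, designed RNA switches in 100 mM Tris-HCl pH 7.5, 80 mM KCl and 4 mM MgCl2 were titrated with SNAP-549-labelled MS2 coat protein. Concentrations went up in twofold steps from 0.7 or 1.5 nM to 3 µM. The switches had been transcribed on-chip from Illumina sequencing clusters, and apparent KD is the per-design median of normalised cluster binding-curve fits.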

Series [2] deals with MS2 coat protein. The series can be described thus: apparent KD of MS2 coat protein, switch OFF state (with FMN for OFF switches, without FMN for ON switches); designed switch direction (-1 OFF switch, 1 ON switch): -1; higher = weaker reporter binding. As to conditions: FMN input: 0 or 200 uM; Eterna round: R93 (includes R88 designs). The essentials:
as §1

As for “AAGACUACAGGAUAUACAUGAGGAUCACCCAUGUAACUGACAAGUAGAGGACGGAGAAGUAGAAGGGUAGUCAA [Ruby 35]”, the “apparent KD of MS2 coat protein” value amounted to 13.6 nM with MS2 coat protein [1] and 26.7 nM in the series with MS2 coat protein [2].

Take “AAGAGUACAGGAUAUACAUGAAAAGAGUCGAAAGACUCAAAACAUGAGGAUCACCCAUGUAGAAGGGUACUCAA [Hyphema Seclusion Mod 62% 2]”: the figures for the “apparent KD of MS2 coat protein” value in the series with MS2 coat protein [1] and in the series with MS2 coat protein [2] were 137 nM and 98.9 nM, respectively.

On to “AAGAGUAGAGGAUAUACGGGAAAAGAGUCGAAAGACUCAAAACAUGAGGAUCACCCAUGUAGAAGGCUACUCAA [Hyphema Seclusion Mod 62% 6]”, for which the “apparent KD of MS2 coat protein” value in the series on MS2 coat protein [1] stood at 87.7 nM; with MS2 coat protein [2] it was 102 nM.

Turning to “AAGCACAGAGGAUAUACAUGGGUAAAAAAAAAAAAAAAAAAACAUGAGGAUCACCCAUGUAGAAGGCUGUGCAA”, the “apparent KD of MS2 coat protein” value is 32.6 nM in the series on MS2 coat protein [1] and 24.3 nM with MS2 coat protein [2].

For “AAGCUGCUAGGAUAUACAGCAGGGAUUCGAAAACCCACGAAACAUGAGGAUCACCCAUGUAGAAGGAGUAGGGA [Attixe]”, the figures for the “apparent KD of MS2 coat protein” value in the series with MS2 coat protein [1] and in the series on MS2 coat protein [2] were 22.9 nM and 15.2 nM, respectively.

For the sequence “AAGGGACAUGAGGAUCACCCAUGUCAGGAUAUGCUAUGGAAAAAUAAAAUAAAACAUAGCAGAAGGGAUAAAAA [Mat - Exclusion 1 - Eli mod - D32]”, the “apparent KD of MS2 coat protein” value came out at 23 nM in the series with MS2 coat protein [1] and 51.1 nM with MS2 coat protein [2].

As for “AAGGGACAUGAGGAUCACCCAUGUCAGGAUAUGCUAUGGAAAAUAAAAAUAAAACAUAGCAGAAGGGAUAAAAA [Denovo 3]”, the entries for the “apparent KD of MS2 coat protein” value in the series on MS2 coat protein [1] and in the series on MS2 coat protein [2] were 20.2 nM and 45.4 nM, respectively.

Turning to “AAGGGACAUGAGGAUCACCCAUGUCAGGAUAUGCUAUGGAAAUAAAAAAUAAAACAUAGCAGAAGGGACAAAAA [Mat - Exclusion 1 - Eli mod - D33]”, the “apparent KD of MS2 coat protein” value with MS2 coat protein [1] stood at 41.2 nM; in the series on MS2 coat protein [2] it was 67.6 nM.

For “AAGGGACAUGAGGAUCACCCAUGUCAGGAUAUGCUAUGGAAAUAAAAAAUAAAACAUAGCAGAAGGGACACCAA [Mat - Exclusion 1 - Eli mod - D49]”, the entries for the “apparent KD of MS2 coat protein” value with MS2 coat protein [1] and with MS2 coat protein [2] were 24 nM and 39.2 nM, respectively.

On to “AAGGGACAUGAGGAUCACCCAUGUGAGGAUAUGAUGCGAAUAAAGAAAGAAGAAAGCAUCAGAAGGCACACCAA [58%, Disencluded 3, 7]”, for which the “apparent KD of MS2 coat protein” value stood at 67.8 nM in the series with MS2 coat protein [1] and 146 nM with MS2 coat protein [2].

For “AAGUUACAUGAGGAUCACCCAUGUGAGGAUAUGUGUAUCCCUAAAAAAGUGUGGGACCACAGAAGGUACUUGGA [Mod 2 of Atanri by ViennaUCT, Round 1]”, the “apparent KD of MS2 coat protein” value in the series with MS2 coat protein [1] was 42.9 nM; with MS2 coat protein [2], 44.5 nM.

For “AAGUUAUUAGGAUAUACUUGUGCGAUUAAUACGUUGAUAUUACAUGAGGAUCACCCAUGUAGAAGGAAUAAAAA [JR_Exc002_Sub412]”, the “apparent KD of MS2 coat protein” value in the series with MS2 coat protein [1] is 24.4 nM; in the series on MS2 coat protein [2] it was 19.4 nM.

“AAGUUGCUAGGAUAUACUUGGGCAACAAAUAAACUAAUAUAACAUGAGGAUCACCCAUGUAGAAGGAGCAGAAA [JR_Exc002_Sub206]”: the “apparent KD of MS2 coat protein” value in the series on MS2 coat protein [1] is 31.8 nM; with MS2 coat protein [2] it was 34.9 nM.

With “AAUAACAGAGGAUAUGCAAAAAUAAGCGGAAACGCAAGAAAACAUGAGGAUCACCCAUGUAGAAGGCUGGAUAA [Tetraloop hairpin BlockHead Variations]”, the “apparent KD of MS2 coat protein” value in the series on MS2 coat protein [1] turned out to be 24.6 nM; with MS2 coat protein [2], 16.7 nM.

Regarding “AAUAAUGCAGGAUAUACUAAAGAAAUGAAAAGAAAUAAAGAACAUGAGGAUCACCCAUGUAGAAGGGCAAAUAA [Yakareb]”, the results for the “apparent KD of MS2 coat protein” value in the series on MS2 coat protein [1] and with MS2 coat protein [2] were 52 nM and 29.3 nM, respectively.

For the sequence “AAUGAUUUAGGAUAUACAUGAGGAUCACCCAUGUUCAAAUCGUGGGUCAGGUGAGAAGGUAGAAGGAAAUCACU [Soberior]”, the “apparent KD of MS2 coat protein” value stood at 113 nM in the series on MS2 coat protein [1] and 185 nM with MS2 coat protein [2].

With “AAUUAGGUAGGAUAUACAUGAGGAUCACCCAUGUGGAAAAAAAACUACGAAAAAGAAUGUAGAAGGACCUAAAA [Ex 3 Frozen]”, the “apparent KD of MS2 coat protein” value was determined as 18.8 nM with MS2 coat protein [1] and 21.9 nM in the series on MS2 coat protein [2].

With “AAUUAGUGAGGAUAUACAUGAGGAUCACCCAUGUGUAAAAAAAAACGCAAAAAAGAAUGUAGAAGGCACUAAAA [Ex 3 Cold]”, the “apparent KD of MS2 coat protein” value in the series with MS2 coat protein [1] was found to be 20.3 nM; in the series with MS2 coat protein [2], 37.9 nM.

As to “ACAAACCAAGGAUAUACAUGAGGAUCACCCAUGUGUUCGGCGUUUAGCAUGGGCAGCAGUAGAAGGUGGAGAAA [Dilareat]”, the entries for the “apparent KD of MS2 coat protein” value in the series on MS2 coat protein [1] and in the series with MS2 coat protein [2] were 37.4 nM and 93.1 nM, respectively.

Take “ACAGUUACAGGAUAUACAUGGGUGAAAAAAGUAUAUCCACUACAUGAGGAUCACCCAUGUAGAAGGGUAACUGA [Ex2 Design 174: Random 3]”: the “apparent KD of MS2 coat protein” value came to 18.6 nM in the series on MS2 coat protein [1] and 12.3 nM in the series on MS2 coat protein [2].

As for “ACCACACAUGAGGAUCACCCAUGUGAGGAUAUCUAGAAAACCUCAUGUAAAAAAAUCUAGAGAAGGCAUAUGAA [Design 93: Pseudoknot C]”, the “apparent KD of MS2 coat protein” value was determined as 38.3 nM with MS2 coat protein [1] and 28.4 nM in the series with MS2 coat protein [2].

Regarding “ACGAAGAGAGGAUAUACGAACAUGUCAAAAGACGUGAAGGGACAUGAGGAUCACCCAUGUAGAAGGCUCUUCGA [Mat - Exclusion 2 - JL mod - D10]”, the “apparent KD of MS2 coat protein” value turned out to be 45.4 nM with MS2 coat protein [1] and 167 nM with MS2 coat protein [2].

As for “AGAAAGUCAGGAUAUACGAACAAGAAAAAAGACGAGAACGGACAUGAGGAUCACCCAUGUAGAAGGGACAAGAA [Diamond 13]”, the “apparent KD of MS2 coat protein” value in the series with MS2 coat protein [1] was determined as 73.5 nM; in the series on MS2 coat protein [2], 36.3 nM.

For “AGAACGUGAGGAUAUACUAACAAACCUCAACAAACAAACAGACAUGAGGAUCACCCAUGUAGAAGGCACAAAAA [EXC - 2]”, the results for the “apparent KD of MS2 coat protein” value in the series with MS2 coat protein [1] and with MS2 coat protein [2] were 54.2 nM and 27.2 nM, respectively.

In the case of “AGAAUACAUGAGGAUCACCCAUGUAAGGAUAUGUGAAGAAAAAGAAAAGAAAAGAAACACAGAAGGUACAAAAG [EX 1 May 18]”, the “apparent KD of MS2 coat protein” value came to 30 nM with MS2 coat protein [1] and 65.8 nM in the series on MS2 coat protein [2].

Regarding “AGAAUACAUGAGGAUCACCCAUGUGAGGAUAUCAGAAGAAAAAGAAAAGAAAAGAAACUGAGAAGGCACAAAAG [EX 1 May 15]”, the entries for the “apparent KD of MS2 coat protein” value in the series with MS2 coat protein [1] and in the series on MS2 coat protein [2] were 35.7 nM and 66.1 nM, respectively.

As to “AGCAAACAUGAGGAUCACCCAUGUCAGGAUAUGAACGAAAAUAAAUAAAAAUAAAAGUUCAGAAGGGACGAGCA [66%, Wbt, 25]”, the “apparent KD of MS2 coat protein” value in the series with MS2 coat protein [1] was 43.2 nM; in the series with MS2 coat protein [2], 50.1 nM.

As to “AGCAAGAGAGGAUAUACAUAGGAAAAAAAAGUUAGAUCCCUACAUGAGGAUCACCCAUGUAGAAGGCUCUGGCA [Ex2 Design 153: Sub-opt 17]”, the “apparent KD of MS2 coat protein” value in the series on MS2 coat protein [1] is 42.2 nM; in the series on MS2 coat protein [2], 37.1 nM.

“AGCUAGCAAGGAUAUACGAACAUGUCAAAAGACGUGAAGGGACAUGAGGAUCACCCAUGUAGAAGGUGCUAGCA [JL 74% mod 8]”: the “apparent KD of MS2 coat protein” value in the series on MS2 coat protein [1] was determined as 36.6 nM; in the series with MS2 coat protein [2], 127 nM.

As for “AGCUAGCGAGGAUAUACGAACAUGUCAAAAGACGUGAAGGGACAUGAGGAUCACCCAUGUAGAAGGUGCUAGCA [JL 74% mod 7]”, the “apparent KD of MS2 coat protein” value with MS2 coat protein [1] turned out to be 31.8 nM; in the series with MS2 coat protein [2] it was 70.3 nM.

As to “AGCUAGUCAGGAUAUACGAAAACGAACGAAGCUGAGAAGGGACAUGAGGAUCACCCAUGUAGAAGGGACUAGCA [Diamond 33]”, the “apparent KD of MS2 coat protein” value turned out to be 36.4 nM in the series on MS2 coat protein [1] and 107 nM with MS2 coat protein [2].

The values are drawn from the supplement of paper PMC9170038.
